To fix the notation:
B1: AL0551 (antibody, human IgG1, kappa, V domains shown)
VH: QVQLVESGGGVVQPGRSLRLSCAASGFTFSAYAMNWIRQPPGKGLEWIGLIYGSGSTFYASWAKGRVTISVDTSKNQFSLKLSSVTAADTAVYYCARGRSVNYNSDFHLWGQGTLVTVSS
VL: DIQMTQSPSSLSASVGDRVTITCQASQSLHDKKNLAWYQQKPGQPPKLLIYGASTLESGVPSRFSGSGSGTDFTLTISSLQPEDFATYYCQGEFSCSSADMNTFGQGTKVEIKR
notes: COS0637temp with VL C95dM (Kabat), already in the VL entry
B2: AL0739 (antibody, human IgG1, kappa, V domains shown)
VH: QVQLVESGGGVVQPGRSLRLSCAASGFTFSAYAMNWIRQPPGKGLEWIGLIYGSGSTFYASWAKGRVTISVDTSKNQFSLKLSSVTAADTAVYYCARGRSVNYNSDFHLWGQGTLVTVSS
VL: DIQMTQSPSSLSASVGDRVTITCQASQSLHDKKNLAWYQQKPGQPPKLLIYGASTLESGVPSRFSGSGSGTDFTLTISSLQPEDFATYYCQGEFSVSSADLNTFGQGTKVEIKR
notes: COS0637temp with VL C94V/C95dL (Kabat), already in the VL entry
B3: AL0552 (antibody, human IgG1, kappa, V domains shown)
VH: QVQLVESGGGVVQPGRSLRLSCAASGFTFSAYAMNWIRQPPGKGLEWIGLIYGSGSTFYASWAKGRVTISVDTSKNQFSLKLSSVTAADTAVYYCARGRSVNYNSDFHLWGQGTLVTVSS
VL: DIQMTQSPSSLSASVGDRVTITCQASQSLHDKKNLAWYQQKPGQPPKLLIYGASTLESGVPSRFSGSGSGTDFTLTISSLQPEDFATYYCQGEFSCSSADNNTFGQGTKVEIKR
notes: COS0637temp with VL C95dN (Kabat), already in the VL entry
B4: AL0553 (antibody, human IgG1, kappa, V domains shown)
VH: QVQLVESGGGVVQPGRSLRLSCAASGFTFSAYAMNWIRQPPGKGLEWIGLIYGSGSTFYASWAKGRVTISVDTSKNQFSLKLSSVTAADTAVYYCARGRSVNYNSDFHLWGQGTLVTVSS
VL: DIQMTQSPSSLSASVGDRVTITCQASQSLHDKKNLAWYQQKPGQPPKLLIYGASTLESGVPSRFSGSGSGTDFTLTISSLQPEDFATYYCQGEFSCSSADPNTFGQGTKVEIKR
notes: COS0637temp with VL C95dP (Kabat), already in the VL entry
B5: AL0736 (antibody, human IgG1, kappa, V domains shown)
VH: QVQLVESGGGVVQPGRSLRLSCAASGFTFSAYAMNWIRQPPGKGLEWIGLIYGSGSTFYASWAKGRVTISVDTSKNQFSLKLSSVTAADTAVYYCARGRSVNYNSDFHLWGQGTLVTVSS
VL: DIQMTQSPSSLSASVGDRVTITCQASQSLHDKKNLAWYQQKPGQPPKLLIYGASTLESGVPSRFSGSGSGTDFTLTISSLQPEDFATYYCQGEFSRSSADLNTFGQGTKVEIKR
notes: COS0637temp with VL C94R/C95dL (Kabat), already in the VL entry
B6: AL0555 (antibody, human IgG1, kappa, V domains shown)
VH: QVQLVESGGGVVQPGRSLRLSCAASGFTFSAYAMNWIRQPPGKGLEWIGLIYGSGSTFYASWAKGRVTISVDTSKNQFSLKLSSVTAADTAVYYCARGRSVNYNSDFHLWGQGTLVTVSS
VL: DIQMTQSPSSLSASVGDRVTITCQASQSLHDKKNLAWYQQKPGQPPKLLIYGASTLESGVPSRFSGSGSGTDFTLTISSLQPEDFATYYCQGEFSCSSADRNTFGQGTKVEIKR
notes: COS0637temp with VL C95dR (Kabat), already in the VL entry
B7: AL0559 (antibody, human IgG1, kappa, V domains shown)
VH: QVQLVESGGGVVQPGRSLRLSCAASGFTFSAYAMNWIRQPPGKGLEWIGLIYGSGSTFYASWAKGRVTISVDTSKNQFSLKLSSVTAADTAVYYCARGRSVNYNSDFHLWGQGTLVTVSS
VL: DIQMTQSPSSLSASVGDRVTITCQASQSLHDKKNLAWYQQKPGQPPKLLIYGASTLESGVPSRFSGSGSGTDFTLTISSLQPEDFATYYCQGEFSCSSADWNTFGQGTKVEIKR
notes: COS0637temp with VL C95dW (Kabat), already in the VL entry
B8: AL0556 (antibody, human IgG1, kappa, V domains shown)
VH: QVQLVESGGGVVQPGRSLRLSCAASGFTFSAYAMNWIRQPPGKGLEWIGLIYGSGSTFYASWAKGRVTISVDTSKNQFSLKLSSVTAADTAVYYCARGRSVNYNSDFHLWGQGTLVTVSS
VL: DIQMTQSPSSLSASVGDRVTITCQASQSLHDKKNLAWYQQKPGQPPKLLIYGASTLESGVPSRFSGSGSGTDFTLTISSLQPEDFATYYCQGEFSCSSADSNTFGQGTKVEIKR
notes: COS0637temp with VL C95dS (Kabat), already in the VL entry
B9: AL0557 (antibody, human IgG1, kappa, V domains shown)
VH: QVQLVESGGGVVQPGRSLRLSCAASGFTFSAYAMNWIRQPPGKGLEWIGLIYGSGSTFYASWAKGRVTISVDTSKNQFSLKLSSVTAADTAVYYCARGRSVNYNSDFHLWGQGTLVTVSS
VL: DIQMTQSPSSLSASVGDRVTITCQASQSLHDKKNLAWYQQKPGQPPKLLIYGASTLESGVPSRFSGSGSGTDFTLTISSLQPEDFATYYCQGEFSCSSADTNTFGQGTKVEIKR
notes: COS0637temp with VL C95dT (Kabat), already in the VL entry
B10: AL0554 (antibody, human IgG1, kappa, V domains shown)
VH: QVQLVESGGGVVQPGRSLRLSCAASGFTFSAYAMNWIRQPPGKGLEWIGLIYGSGSTFYASWAKGRVTISVDTSKNQFSLKLSSVTAADTAVYYCARGRSVNYNSDFHLWGQGTLVTVSS
VL: DIQMTQSPSSLSASVGDRVTITCQASQSLHDKKNLAWYQQKPGQPPKLLIYGASTLESGVPSRFSGSGSGTDFTLTISSLQPEDFATYYCQGEFSCSSADQNTFGQGTKVEIKR
notes: COS0637temp with VL C95dQ (Kabat), already in the VL entry
B11: AL0741 (antibody, human IgG1, kappa, V domains shown)
VH: QVQLVESGGGVVQPGRSLRLSCAASGFTFSAYAMNWIRQPPGKGLEWIGLIYGSGSTFYASWAKGRVTISVDTSKNQFSLKLSSVTAADTAVYYCARGRSVNYNSDFHLWGQGTLVTVSS
VL: DIQMTQSPSSLSASVGDRVTITCQASQSLHDKKNLAWYQQKPGQPPKLLIYGASTLESGVPSRFSGSGSGTDFTLTISSLQPEDFATYYCQGEFSWSSADQNTFGQGTKVEIKR
notes: COS0637temp with VL C94W/C95dQ (Kabat), already in the VL entry
B12: AL0558 (antibody, human IgG1, kappa, V domains shown)
VH: QVQLVESGGGVVQPGRSLRLSCAASGFTFSAYAMNWIRQPPGKGLEWIGLIYGSGSTFYASWAKGRVTISVDTSKNQFSLKLSSVTAADTAVYYCARGRSVNYNSDFHLWGQGTLVTVSS
VL: DIQMTQSPSSLSASVGDRVTITCQASQSLHDKKNLAWYQQKPGQPPKLLIYGASTLESGVPSRFSGSGSGTDFTLTISSLQPEDFATYYCQGEFSCSSADVNTFGQGTKVEIKR
notes: COS0637temp with VL C95dV (Kabat), already in the VL entry
B13: AL0738 (antibody, human IgG1, kappa, V domains shown)
VH: QVQLVESGGGVVQPGRSLRLSCAASGFTFSAYAMNWIRQPPGKGLEWIGLIYGSGSTFYASWAKGRVTISVDTSKNQFSLKLSSVTAADTAVYYCARGRSVNYNSDFHLWGQGTLVTVSS
VL: DIQMTQSPSSLSASVGDRVTITCQASQSLHDKKNLAWYQQKPGQPPKLLIYGASTLESGVPSRFSGSGSGTDFTLTISSLQPEDFATYYCQGEFSLSSADLNTFGQGTKVEIKR
notes: COS0637temp with VL C94L/C95dL (Kabat), already in the VL entry
B14: AL0560 (antibody, human IgG1, kappa, V domains shown)
VH: QVQLVESGGGVVQPGRSLRLSCAASGFTFSAYAMNWIRQPPGKGLEWIGLIYGSGSTFYASWAKGRVTISVDTSKNQFSLKLSSVTAADTAVYYCARGRSVNYNSDFHLWGQGTLVTVSS
VL: DIQMTQSPSSLSASVGDRVTITCQASQSLHDKKNLAWYQQKPGQPPKLLIYGASTLESGVPSRFSGSGSGTDFTLTISSLQPEDFATYYCQGEFSCSSADYNTFGQGTKVEIKR
notes: COS0637temp with VL C95dY (Kabat), already in the VL entry

This test has as its target T1, recombinant human C1r2s2 tetramer (human, UniProt P09871 16-688; P00736 18-705).
T1 construct: C1s and C1r co-expressed in HEK293/FreeStyle 293-F and purified from conditioned medium
T1 chain 1: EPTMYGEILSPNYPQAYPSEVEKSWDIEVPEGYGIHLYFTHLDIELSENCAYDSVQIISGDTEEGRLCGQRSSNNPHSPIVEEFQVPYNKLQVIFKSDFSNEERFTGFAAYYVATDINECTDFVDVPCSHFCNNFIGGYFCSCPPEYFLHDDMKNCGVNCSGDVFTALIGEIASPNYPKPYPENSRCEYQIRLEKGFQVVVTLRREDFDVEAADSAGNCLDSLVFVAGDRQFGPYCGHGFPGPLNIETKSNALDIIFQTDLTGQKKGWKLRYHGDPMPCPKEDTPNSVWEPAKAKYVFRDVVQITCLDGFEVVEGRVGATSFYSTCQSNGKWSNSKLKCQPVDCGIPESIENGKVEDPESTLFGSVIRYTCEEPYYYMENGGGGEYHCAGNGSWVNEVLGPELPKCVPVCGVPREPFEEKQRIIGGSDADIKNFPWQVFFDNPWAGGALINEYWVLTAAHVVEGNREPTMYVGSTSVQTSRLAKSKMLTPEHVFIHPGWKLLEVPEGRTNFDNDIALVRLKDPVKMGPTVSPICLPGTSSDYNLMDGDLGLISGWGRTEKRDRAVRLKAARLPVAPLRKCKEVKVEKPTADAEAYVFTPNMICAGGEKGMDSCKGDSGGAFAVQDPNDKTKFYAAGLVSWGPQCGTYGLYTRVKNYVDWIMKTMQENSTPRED
T1 chain 2: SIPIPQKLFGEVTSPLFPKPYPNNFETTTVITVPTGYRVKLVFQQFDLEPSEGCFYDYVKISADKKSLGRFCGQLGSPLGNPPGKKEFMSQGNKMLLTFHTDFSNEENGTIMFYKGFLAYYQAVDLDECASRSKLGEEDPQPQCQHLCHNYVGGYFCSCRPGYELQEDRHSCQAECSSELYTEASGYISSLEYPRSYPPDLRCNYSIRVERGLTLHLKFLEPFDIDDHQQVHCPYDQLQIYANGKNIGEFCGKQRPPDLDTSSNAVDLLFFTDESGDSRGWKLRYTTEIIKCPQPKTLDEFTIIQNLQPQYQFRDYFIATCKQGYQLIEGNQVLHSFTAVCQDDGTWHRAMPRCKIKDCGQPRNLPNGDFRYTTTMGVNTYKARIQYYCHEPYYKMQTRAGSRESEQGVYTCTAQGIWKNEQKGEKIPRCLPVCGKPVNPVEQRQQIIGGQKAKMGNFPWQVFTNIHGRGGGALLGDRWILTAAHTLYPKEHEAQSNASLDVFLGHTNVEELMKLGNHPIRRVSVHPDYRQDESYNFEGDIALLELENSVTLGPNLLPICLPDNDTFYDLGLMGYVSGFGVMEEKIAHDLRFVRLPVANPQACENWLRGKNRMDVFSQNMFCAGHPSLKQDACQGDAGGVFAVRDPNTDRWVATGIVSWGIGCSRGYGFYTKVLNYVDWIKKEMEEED
Briefly: SPR (BIACORE), antibody captured by ProL, human C1r2s2 injected at 100 nM, pH 7.4, 37 C. The procedure: Analysis of interaction between antibody variants and the human C1r2s2 prepared as mentioned above was carried out at pH7.4, at 37 degrees C. using BIACORE® T200 instrument (GE Healthcare) or BIACORE® 4000 (GE Healthcare). ProL (BioVision) was immobilized onto a CM4 sensorchip using amine coupling kit (GE Healthcare) according to the recommended settings by GE Healthcare. Antibodies and analytes were diluted into the respective running buffers, ACES pH7.4 (20 mM ACES (N-(2-Acetamido)-2-aminoethanesulfonic acid), 150 mM NaCl, 1.2 mM CaCl2, 1 mg/ml bovine serum albumin (BSA), 1 mg/ml CMD (CM-Dextran sodium salt), 0.05% Tween® 20 (polysorbate 20), 0.005 w/v % NaN3). Each antibody was captured onto the sensor surface by ProL. Antibody capture levels were aimed at 200 resonance units (RU). Then, recombinant human C1r2s2 was injected at concentrations of 25 and 100 nM followed by dissociation at pH7.4. The surface was regenerated using 10 mM Glycine-HCl, pH1.5.
For orientation: Surface plasmon resonance follows binding to a sensor surface in real time, without labels.
For the molecule B1, the binding result is reported as “no binding (tested: 100 nM)”.

As to B2, the binding result is “no binding (tested: 100 nM)”.

Turning to B3, the binding result is given as “no binding (tested: 100 nM)”.

B4: the binding result is listed as “no binding (tested: 100 nM)”.

For B5, the binding result was “no binding (tested: 100 nM)”.

In the case of B6, the binding result is “no binding (tested: 100 nM)”.

Take B7: the binding result was “no binding (tested: 100 nM)”.

Consider B8, for which the binding result is on record as “no binding (tested: 100 nM)”.

For the molecule B9, the binding result is reported as “no binding (tested: 100 nM)”.

B10: the binding result is recorded as “no binding (tested: 100 nM)”.

In the case of B11, the binding result is on record as “no binding (tested: 100 nM)”.

As for B12, the binding result is given as “no binding (tested: 100 nM)”.

For the molecule B13, the binding result is “no binding (tested: 100 nM)”.

For the molecule B14, the binding result was “no binding (tested: 100 nM)”.
